According to US8889621B2, “Inhibiting binding of FGF23 to the binary FGFR-Klotho complex for the treatment of hypophosphatemia” (New York University, priority 2009, dated 2014):
“Also recorded” adds a separate entry of the source.

Legend:
βKlotho-FGF21 = biological target: T1, βKlotho-FGF21 (Mus musculus, UniProt Q99N32); experiment: SPR specificity: βKlotho binding to immobilized FGF21^29-209; set-up: species or system murine βKlotho, human FGF21; conditions: molar ratio of 2:1 to βKlotho
T1 construct: the ectodomain of murine βKlotho (F53 to L995) was expressed in HEK293 cells; FLAG (C); made in house; host or cells: HEK293 (βKlotho ectodomain); E. coli (FGF21)
T1 sequence (Q99N32 53-995): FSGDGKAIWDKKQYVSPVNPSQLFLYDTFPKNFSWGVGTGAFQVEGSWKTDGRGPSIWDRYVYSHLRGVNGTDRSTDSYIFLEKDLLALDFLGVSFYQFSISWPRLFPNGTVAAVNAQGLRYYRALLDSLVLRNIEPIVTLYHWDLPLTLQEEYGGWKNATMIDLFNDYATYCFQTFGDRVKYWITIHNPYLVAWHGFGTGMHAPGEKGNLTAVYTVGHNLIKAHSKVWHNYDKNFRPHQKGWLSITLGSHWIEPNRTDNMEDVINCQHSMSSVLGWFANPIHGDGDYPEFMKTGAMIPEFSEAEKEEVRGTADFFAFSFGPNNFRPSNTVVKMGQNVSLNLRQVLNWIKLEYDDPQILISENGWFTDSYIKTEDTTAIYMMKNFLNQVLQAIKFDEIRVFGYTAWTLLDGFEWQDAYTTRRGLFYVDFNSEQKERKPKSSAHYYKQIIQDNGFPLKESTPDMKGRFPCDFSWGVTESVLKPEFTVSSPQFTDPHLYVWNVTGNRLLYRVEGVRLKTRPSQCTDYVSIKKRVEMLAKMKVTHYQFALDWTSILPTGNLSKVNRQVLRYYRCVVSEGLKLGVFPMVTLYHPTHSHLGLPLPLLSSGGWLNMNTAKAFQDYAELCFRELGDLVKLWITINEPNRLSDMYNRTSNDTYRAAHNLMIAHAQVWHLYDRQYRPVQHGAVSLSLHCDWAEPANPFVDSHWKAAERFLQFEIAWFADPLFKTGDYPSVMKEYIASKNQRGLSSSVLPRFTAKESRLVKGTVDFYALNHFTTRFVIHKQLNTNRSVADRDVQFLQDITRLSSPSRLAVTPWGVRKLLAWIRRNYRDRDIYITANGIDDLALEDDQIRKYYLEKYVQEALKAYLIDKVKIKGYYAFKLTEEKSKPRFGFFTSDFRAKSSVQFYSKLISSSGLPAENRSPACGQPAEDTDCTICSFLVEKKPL

NaPi-2A = NaPi-2A protein abundance in apical brush border membrane of rat kidney; assay type: in vivo; conditions: IV 0.1 μg kg body weight^−1, 3 h post injection, vs vehicle
Protocol: (§1) Immunoblot analysis of NaPi-2A and NaPi-2C protein abundance in renal cortex tissue and isolated brush border membrane vesicles (BBMV), and NaPi-2A immunostaining of renal tissue were performed as described (Bacic et al., “Activation of Dopamine Dl-like Receptors Induces Acute Internalization of the Renal Na^+/phosphate Cotransporter NaPi-IIa in Mouse Kidney and OK cells,” Am J Physiol Renal Physiol 288(4):F740-747 (2005), Loffing et al., “Renal Na/H Exchanger NHE-3 and Na—PO4 Cotransporter NaPi-2 Protein Expression in Glucocorticoid Excess and Deficient States,” J Am Soc Nephrol 9(9):1560-1567 (1998), Moe et al., “Dietary NaCl Modulates Na(+)-H+ Antiporter Activity in Renal Cortical Apical Membrane Vesicles,” Am J Physiol 260(1 Pt 2):F130-137 (1991), which are hereby incorporated by reference in their entirety).
(§2) For immunoblot, rat kidney cortices were dissected and homogenized, and BBMV were isolated (Loffing et al., “Renal Na/H Exchanger NHE-3 and Na—PO4 Cotransporter NaPi-2 Protein Expression in Glucocorticoid Excess and Deficient States,” J Am Soc Nephrol 9(9):1560-1567 (1998), Moe et al., “Dietary NaCl Modulates Na(+)-H+ Antiporter Activity in Renal Cortical Apical Membrane Vesicles. Am J Physiol 260(1 Pt 2):F130-137 (1991), which are hereby incorporated by reference in their entirety). […]

NaPi-2C = NaPi-2C protein abundance in apical brush border membrane of rat kidney; assay type: in vivo; conditions: IV 0.1 μg kg body weight^−1, 3 h post injection, vs vehicle
Protocol: as §1, §2

B1: FGF23^180-251: 72-amino acid C-terminal tail of human FGF23 (S180 to I251), expressed in E. coli (protein, listed as Homo sapiens)
chain: SAEDDSERDPLNVLKPRARMTPAPASCSQELPSAEDNSPMASDPLGVVRGGRVNTHAGGTGPEGCRPFAKFI
In the case of B1, the “inhibition of βKlotho binding to immobilized FGF21” value (βKlotho-FGF21) is reported as “failed to inhibit; also recorded: no inhibition”, the “NaPi-2A protein expression in the apical brush border membrane” value (NaPi-2A) is reported as “increased” and the “NaPi-2C protein expression in the apical brush border membrane” value (NaPi-2C) is reported as “increased”.

B2: FGF23^28-251: human FGF23 (A28 to I251), bioactive full-length ligand expressed in E. coli (protein, listed as Homo sapiens)
chain: ASPLLGSSWGGLIHLYTATARNSYHLQIHKNGHVDGAPHQTIYSALMIRSEDAGFVVITGVMSRRYLCMDFRGNIFGSHYFDPENCRFQHQTLENGYDVYHSPQYHFLVSLGRAKRAFLPGMNPPPYSQFLSRRNEIPLIHFNTPIPRRHTRSAEDDSERDPLNVLKPRARMTPAPASCSQELPSAEDNSPMASDPLGVVRGGRVNTHAGGTGPEGCRPFAKFI
B2 was tested, and the “NaPi-2A protein expression in the apical brush border membrane” value (NaPi-2A) was “decrease; also recorded: diminished” and the “NaPi-2C protein expression in the apical brush border membrane” value (NaPi-2C) was “diminished”.
